Measurements: PMC7892824 (2021)
Bridges are numbered along the chain shown (N, C = ends). [ ]: non-standard residue; d: D form. The star is where a group is joined. FITC = O=C1OC2(c3ccc(O)cc3Oc3cc(O)ccc32)c2ccc(NC(=S)*)cc21; S5 = C=CCCC[C@](C)(N)C(=O)O; Ahx = NCCCCCC(=O)O

Experiments:
[1] = target: T1, Human full-length (1–192) wild-type BAX (human, UniProt Q07812 1-192); assay: FP; 0 uM EO
[2] = target: T1, Human full-length (1–192) wild-type BAX; assay: FP; 1 uM EO (eltrombopag)
[3] = target: T1, Human full-length (1–192) wild-type BAX; assay: FP; 0.5 uM EO (eltrombopag)

T1 sequence (Q07812 whole entry): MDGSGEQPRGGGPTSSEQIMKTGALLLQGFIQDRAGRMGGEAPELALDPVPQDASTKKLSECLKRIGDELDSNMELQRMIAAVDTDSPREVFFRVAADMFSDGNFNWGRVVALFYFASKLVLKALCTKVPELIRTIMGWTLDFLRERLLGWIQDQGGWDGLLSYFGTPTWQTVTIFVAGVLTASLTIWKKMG

B1: FITC-BIM–SAHB, fluorescently-labeled hydrocarbon-stapled BIM–BH3 peptide (peptide)
chain: {FITC-Ahx}-EIWIAQELR[S5]IGD[S5]FNAYYA-NH2
modifications: staple 10-14
SMILES: CC[C@H](C)[C@H](NC(=O)[C@H](Cc1c[nH]c2ccccc12)NC(=O)[C@@H](NC(=O)[C@H](CCC(=O)O)NC(=O)CCCCCNC(=S)Nc1ccc2c(c1)C(=O)OC21c2ccc(O)cc2Oc2cc(O)ccc21)[C@@H](C)CC)C(=O)N[C@@H](C)C(=O)N[C@@H](CCC(N)=O)C(=O)N[C@@H](CCC(=O)O)C(=O)N[C@@H](CC(C)C)C(=O)N[C@@H](CCCNC(=N)N)C(=O)N[C@@]1(C)CCCC=CCCC[C@@](C)(C(=O)N[C@@H](Cc2ccccc2)C(=O)N[C@@H](CC(N)=O)C(=O)N[C@@H](C)C(=O)N[C@@H](Cc2ccc(O)cc2)C(=O)N[C@@H](Cc2ccc(O)cc2)C(=O)N[C@@H](C)C(N)=O)NC(=O)[C@H](CC(=O)O)NC(=O)CNC(=O)[C@H]([C@@H](C)CC)NC1=O
Q: With B1 as the binder, how does the Kd [1] read?
A: Its Kd is 110 nM.

Q: And the Kd [2]?
A: Its Kd is greater than 2000 nM.

Q: What about the Kd [3] of the same binder?
A: The Kd was 613 nM.
